Data from US20030008355A1 (published 2003).

Experiments:
[1] = biological target: carcinoembryonic antigen (CEA) (UniProt P06731); experiment: acid-wash EIA on CEA-coated plates, citrate pH 2.5, 1 h 37 C
[2] = biological target: T1, carcinoembryonic antigen (CEA) (UniProt P06731 35-685, limits assumed); experiment: as above
T1 construct: Antigen coated on microtitre plates
T1 sequence (looked up): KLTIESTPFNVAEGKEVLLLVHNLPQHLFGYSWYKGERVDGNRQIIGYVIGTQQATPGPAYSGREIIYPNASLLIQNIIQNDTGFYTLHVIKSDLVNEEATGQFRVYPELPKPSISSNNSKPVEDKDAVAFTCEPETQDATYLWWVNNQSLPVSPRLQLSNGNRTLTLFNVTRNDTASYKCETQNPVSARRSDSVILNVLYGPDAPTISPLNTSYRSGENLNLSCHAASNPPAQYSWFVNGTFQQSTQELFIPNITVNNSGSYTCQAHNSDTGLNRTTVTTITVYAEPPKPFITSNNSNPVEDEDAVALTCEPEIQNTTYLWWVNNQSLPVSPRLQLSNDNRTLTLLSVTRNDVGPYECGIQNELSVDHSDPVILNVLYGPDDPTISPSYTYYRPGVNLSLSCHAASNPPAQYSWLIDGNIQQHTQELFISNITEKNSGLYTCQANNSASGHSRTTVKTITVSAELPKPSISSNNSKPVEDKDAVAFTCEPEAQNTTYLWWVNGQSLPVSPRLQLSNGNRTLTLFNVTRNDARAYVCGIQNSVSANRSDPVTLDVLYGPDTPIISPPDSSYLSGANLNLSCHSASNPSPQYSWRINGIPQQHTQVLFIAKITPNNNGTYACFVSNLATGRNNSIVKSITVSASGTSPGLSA
Method: (§1) Carcinoembryonic antigen (CEA)-coated microtitre plates were prepared as described previously. Single-chain Fv samples (6H9) were diluted to a range of concentrations between 1 ng/ml and 100 ng/ml in PBS at pH 7.2 containing 1% bovine serum albumin (BSA). 100 μl samples were added to the microtitre plate wells and incubated for 1 hour at 37° C. The plates were then washed, 200 μl per well of citrate added, and the plates incubated for 1 hour at 37° C. In this case, the acid preparations were made using a stock solution of 100 mM citrate diluted to pH values of 4.0, 3.5, 3.0, 2.5 and 2.0 in the reaction mixture. PBS at pH 7.2 was used as a reference control. The plates were then washed and 100 μl per well of mouse anti-tetra-histidine antibody (Qiagen) (100 ng/ml diluted in PBS at pH 7.2 with 1% BSA) added and incubated for 1 hour at 37° C. […] The plates were then washed, treated with PNPP as described previously and the absorbance measured using a spectrophotometer at 405 nm.
(§2) As a control for acid resistance, sFv samples were incubated with PBS at pH 7.2 to generate an EIA response curve for the SFv samples. In the linear region, a concentration of 10-20 ng/ml of the SFv sample gave an absorbance (A₄₀₅) of 1.0-1.5 and was therefore used to determine the amount of antibody bound in the acid washed samples as a percentage of the amount bound in the reference sample.

[3] = biological target: T1, carcinoembryonic antigen (CEA); experiment: acid-wash EIA on CEA-coated plates, citrate pH 3.5, 1 h 37 C
Method: as §1, §2

[4] = biological target: T1, carcinoembryonic antigen (CEA); experiment: acid-wash EIA on CEA-coated plates, citrate pH 2.0, 1 h 37 C
Method: as §1, §2

[5] = biological target: T1, carcinoembryonic antigen (CEA); experiment: acid-wash EIA on CEA-coated plates, HCl pH 2, 1 h 37 C, against standard EIA
Method: Maxisorb assay plates (NUNC) were coated with CEA (0.4 μg/ml in phosphate-buffered saline at pH 7.2), 100 μl per well and left overnight at 4° C. The plates were then washed three times using phosphate buffered saline at pH 7.2 with 0.01% Tween 20 detergent. Any remaining reactive sites on the plates were blocked by the addition of 200 μl per well of 0.2% fat-free milk protein in PBS at pH 7.2 at 37° C. for ½ hour. The plates were then washed in PBS as described above and 45 μl of the antibody samples were added to the wells of the plates. The samples were incubated for one hour at 37° C. and then washed as described previously. Bound antibody was detected using alkaline phosphatase-conjugated donkey anti-sheep antibody (Sigma A5187 diluted 1/5000 in PBS at pH 7.2 with 1% BSA). The plates were then washed and 100 μl per well of PNPP (Sigma N2770) solution was added. Absorbance was measured using a spectrophotometer at 405 nm with phosphate buffered saline as a control.
Coating and binding of antibody samples was as described for the standard EIA above. However, after incubation with the antibody samples, the plates were washed and 200 μl per well of HCl (10 mM Stock solution) at pH 2 was added for one hour at 37° C. After three washes the antibody remaining bound to antigen was detected using alkaline phosphatase-conjugated donkey anti-sheep antibody and PNPP as described above. […]

Row | Molecule | percent antigen binding retained at pH 2.5 relative to pH 7.2 [1] [%] | percent antigen binding retained at pH 2.5 relative to pH 7.2 [2] [%] | percent antigen binding retained at pH 3.5 relative to pH 7.2 [3] [%] | percent antigen binding retained at pH 2.0 relative to pH 7.2 [4] [%] | retention of binding in acid-washed EIA (pH 2) relative to non-acid washed EIA [5] [%]
1 | mouse-derived anti-carcinoembryonic antigen single-chain Fv MFE (scFv) | < 5 |  |  |  | 
2 | mouse-derived anti-carcinoembryonic antigen whole antibody A5B7 (antibody, from another filing, V domains shown) VH: EVKLVESGGGLVQPGGSLRLSCATSGFTFTDYYMNWVRQPPGKALEWLGFIGNKANGYTTEYSASVKGRFTISRDKSQSILYLQMNTLRAEDSATYYCTRDRGLRFYFDYWGQGTTLTVSS VL: QTVLSQSPAILSASPGEKVTMTCRASSSVTYIHWYQQKPGSSPKSWIYATSNLASGVPARFSGSGSGTSYSLTISRVEAEDAATYYCQHWSSKPPTFGGGTKLEIK | < 5 |  |  |  | 
3 | 6H9 single-chain Fv (scFv, VH-(Gly4Ser)3-VL with C-terminal hexa-histidine tag, expressed in E. coli HB 2151; also called 6H9 SFv; sFv) scFv: QVQLQESGPSLVKPSQTLSLTCTVSGFSLTKYGVSWVRQAPGKALEWLGGVSSGALTAYNTALQSRLSVTRDTSKSQFSLSLSSVTTEDTAIYYCAKSVNGDSVPYGLDYWSPGLLLTVSSGGGGSGGGGSGGGGSQDVLTQPSSVSGSLGQRVSITCSGSSSNIGGNAYVGWYQQVPGSAPRLLISATTDRASGIPDRFSGSRSGNTATLTISSLQAEDEADYYCASYQSTYSGVFGSGTRLTVLGHHHHHH |  | > 60 | > 70 | > 50 | 
4 | 6H9 whole antibody (sheep monoclonal antibody secreted by hybridoma 6H9) (antibody, V domains shown, Whole sheep monoclonal antibody) VH: QVQLQESGPSLVKPSQTLSLTCTVSGFSLTKYGVSWVRQAPGKALEWLGGVSSGALTAYNTALQSRLSVTRDTSKSQFSLSLSSVTTEDTAIYYCAKSVNGDSVPYGLDYWSPGLLLTVSS VL: QDVLTQPSSVSGSLGQRVSITCSGSSSNIGGNAYVGWYQQVPGSAPRLLISATTDRASGIPDRFSGSRSGNTATLTISSLQAEDEADYYCASYQSTYSGVFGSGTRLTVLG |  | > 60 | > 70 | > 50 | > 50
